Measured values from US20180364250.

Biological target: ubiquitin-D77

B1: YUH1 (protein)
chain: MSGENRAVVPIESNPEVFTNFAHKLGLKNEWAYFDIYSLTEPELLAFLPRPVKAIVLLFPINEDRKSSTSQQITSSYDVIWFKQSVKNACGLYAILHSLSNNQSLLEPGSDLDNFLKSQSDTSSSKNRFDDVTTDQFVLNVIKENVQTFSTGQSEAPEATADTNLHYITYVEENGGIFELDGRNLSGPLYLGKSDPTATDLIEQELVRVRVASYMENANEEDVLNFAMLGLGPNWE
- fluorescence intensity over time (real-time deubiquitinase assay with 500 nM ubiquitin-D77, 10 nM fluorescein-tagged ubiquitin, 10 nM tIVR): Activity of YUH1 released ubiquitin proteins from conjugation to aspartic acid (i.e., the D77 residue), and thus increased the concentration of free ubiquitin protein
